Results: the DeepSol protein solubility set

Experiment: soluble on expression in E. coli; label from the status in PepcDB or PDB records

Row | Sequence | soluble on expression in E. coli
1 | MRVLVLGGGVLGRAIAESLFGEFEVIVVEKDEVRVQTLAEKGLQVVQGDFSYTATLLKAHIEKADLIVITISDPEVIAKTLHVIQNNNKDAAVLLILPEDTSLEEIASIAKEKYDTDVKVDYVINPRSAIVRAVVDTIEKIGEKKNSMKLIEKLNEIKENTDTLLIVMHDNPDPDCMASASALSLIAQTVGLKTVIVYGGDITHHQNRAMVNILGMDFRKVSRGSYEIKRHSAIAIVDAQPNGNISILDDEDIAKVQIIIDHHQILQNLREKLPDNCFVDIRPEANSTSSILVEYLKSLEIPIDENLATALFYGMYIDTKKFSKLSKIDIKAIEFLSGHVDYDLLDKIEFPDISTETAEILARAILNRRIYKNVIISNVGFIANRDAIAEAADFLLRLEGITTVLVFGIVDDRIEISARTRDVRVNIGAIMKEAFGSLGSGGGHPQAGGARIPLGIFKLAKDKASLLRLVEEAITERFLEALGMREGT | not soluble
2 | MRVTDFSFELPESLIAHYPQPERSRCRLLSLEGPTGALTHGTFTDLLDKLNPGDLLVFNNTRVIPARLFGRKASGGKIEVLVERMLDDKRILAHIRASKAPKPGTELLLGDDESIHATMTARHGALFEVEFNDPRPVLDILNAIGHMPLPPYIDRPDEDADRELYQTVYSEKPGAVAAPTAGLHFDEPLLAALREKGVEMAFVTLHVGAGTFQPVRVDTIEDHIMHSEYAEVPQEVVDAVLAAKARGNRVIAVGTTSVRSLESAAQAAKSDLIEPFFGDTQIFIYPGYQYKVIDALITNFHLPESTLIMLVSAFAGYQHTMNAYKTAVEQKYRFFSYGDAMFITYNPQAISERP | not soluble
3 | MRVYRVKGEVLVAVCDSDIVGKTFREGDLKIEVKESFYGSEEVGEEEVKRALRNATIANITGKKAVELAARIGIIDRNRVLYIGGCPHAQMVVM | not soluble
4 | MRWLLVVAGLLAAGGLAQTPPPPAAQTAEQNPLRLGVQLYALGRYDAALTLFERALKENPQDPEALYWLARTQLKLGLVNPALENGKTLVARTPRYLGGYMVLSEAYVALYRQAEDRERGKGYLEQALSVLKDAERVNPRYAPLHLQRGLVYALLGERDKAEASLKQALALEDTPEIRSALAELYLSMGRLDEALAQYAKALEQAPKDLDLRVRYASALLLKGKAEEAARVLEEGHRIKPLNAEGWYTLGQAYLALGRTKEAGVALENAVALAPLRFPAAYYYLGQVYLALGDYPKAKSRLTVAVRLEPKRAEYRYSLCLANEKLGDKEGARYQCQEALKLRPDYKEAEEVLKRL | soluble
5 | MRYITAGESHGPQLTTIIEGVPAGLPLVADDINEELARRQKGYGRGRRMQIETDQVQIVSGVRHGETLGSPIALVVENRDFAHWTKIMGAEPLTEQEEKEMKRKVTKPRPGHADLNGAIKYGHRDMRNVLERSSARETTVRVAAGAVAKKVLAELGITVAGHVIEIGGVEAKETTYRSIEELKSITEASPVRCLDEEAGNQMIKAIDDAKSNGDSIGGIVEVIVEGMPIGVGSYVHYDRKLDAKLAAAIMSINAFKGVEIGIGFEAAHRPGSEVHDEILWNEEHGYTRRTNNAGGLEGGMTTGMPIVVRGVMKPIPTLYKPLQSVDIDTKEPFTASIERSDSCAVPAASVVAEAVVAWELATALIEQFGLDRMDLIRENIEKHNEYARGF | not soluble
6 | MRYRPVIGLEIHVQLSTKTKAFCSCPADVFELPPNTAICPVCTGQPGALPVPNEEMIRFAVKTALALNCKIHKYSRFDRKNYFYPDLPKGYQISQYFYPIATEGFLEIDGDEGRKKVRIRRLHLEEDAGKLVHEGDSITRASYSLVDMNRCGVPLIEIVTEPDISSPREARVFMEKLRSIVRYLGVSTGDMEKGALRCDANISVVDTETGRQSNRVEVKNMNSFRFVERALEYEFERIVKAMERGEDVERETRGWDMATKITVSMRGKEEESDYRYFPEPDIPPVVLSDEYLEEVKKELPELPDEKAERFMREYGLPEYDAKVLTSSKELAEFFEECVKVVNRPKDLSNWIMTEVLRELNERNIEITESKLTPQHFADLFKLMDEGKISIKIAKEIFPEVFETGKMPSQIVEEKGLTQINDEKLIEELVKKAMEQNPKAVQDYKSGKKKAAGFFVGYVMRETKGKANPELTNRIIQKLLEGE | soluble
7 | MSAAHKNLLAVWAKEPKDLVAVEKALNELTKVLSASSDLNDKQSALASKDLYEISVLLAILKHDFETFDDYINQMHTYYTMAPENSENKHLMTGLHLMFLLAANRLSDFHMLLEQIPQKEQTSNAYISTPVRIEQSLMEGAYNKVVLTEKNIPSPFYTIFIRIMLDTIRREIATSIEKSFKVLTAKDATVMLLFDNDEQMKKFGQERKWHLDGERYVFEIEVAQEKPVNLDTVRVATQTLFYAKQLEQIV | not soluble
8 | MSADYSSEKFKATHLFDEILWHFRSNLSLKTNRRGLATAENSFSGKEAVDFLMIEMPRIIPNNVPERDKMQKFLEFMMDMNVISEAFPKKVKQRRPFSESRIYLFMKTLDELKHPKPRSRRSASFSGARKSAKVAQPASPAATMHRPPKARLPRRLSRSNGNIDKAGIDNSSGGVENHGFDDHKDDEIPKKQRTPKILNRSLESICTEEYTEKREVSEMKEKVYDWLPFFKSRRNHTKVNQPTRRSASLDRNHCVLEQEKAEAALRSQKVTTPPIREAPKDVVFMHPQGPLPAVPSRYQNHRTSIAGSNPALLSRGRMYESIMRRSSVVPVADSVQANNECSFWKTELLGRLEQIYDRTLPCEWASKVDGYDIQWNMIEIDHADGIVKSRCQGLQPDYPQTVIQFMDYLVRYPFVTHKKMDTGLEYNVNRIFITLVNRLEDLNAPLQFDECSLIVNLLCKIDSFAAMLDNGPARRWSKVMISSSASSIEEAGLMVDGFSRDLPACGIRASKYRRRALSPFDNRVNLEIQDEKSYEIREQWLIEAIQLVLLSLPTSRRRKLHKFVTFIQSIETNAVFDLADPSNGSSNNREAAIIGLWTGVCSKCRKQQGMLITAVLLANFQSLFAVPVEFIEQVKRLECEEKDRYSGPRYAKITRSRNDWQPPVPDKPQASPAVFKKPLREVACEKTKKGLFTRLLRK | not soluble
9 | MSASKILSQKIKVALVQLSGSSPDKMANLQRAATFIERAMKEQPDTKLVVLPECFNSPYSTDQFRKYSEVINPKEPSTSVQFLSNLANKFKIILVGGTIPELDPKTDKIYNTSIIFNEDGKLIDKHRKVHLFDVDIPNGISFHESETLSPGEKSTTIDTKYGKFGVGICYDMRFPELAMLSARKGAFAMIYPSAFNTVTGPLHWHLLARSRAVDNQVYVMLCSPARNLQSSYHAYGHSIVVDPRGKIVAEAGEGEEIIYAELDPEVIESFRQAVPLTKQRRFDVYSDVNAH | soluble
10 | MSASVSDPYEQMPAAPTDDDLEDKPEADKKALLNQVFKSLKRAQDLFYHDYAQPPPMPEENDSLIRSMKRKHEYGNVIKKVEEMKVRRENEMLALPTSQPMHGTGSVIASAGTPLAITDGSGKLVNQQQGSAKSGTLLPLVPLGNSSKGEDNTTRSLLPSKAPMMMKPKWHAPWKLYRVASGHTGWVRAVDVEPGNQWFASGGADRIIKIWDLASGQLKLSLTGHISSVRAVKVSPRHPFLFSGGEDKQVKCWDLEYNKVIRHYHGHLSAVQALSVHPSLDVLVTCARDSTARVWDMRTKAQVHCFAGHTNTVADVVCQSVDPQVITASHDATVRLWDLAAGRSMCTLTHHKKSVRALTIHPRLNMFASASPDNIKQWKLPKGEFMQNLSGHNAIINTLSSNDDGVVVSGADNGSLCFWDWRSGFCFQKIQTKPQPGSIESEAGIYASCFDKTGLRLITAEADKTIKMYKEDDEATEESHPIVWRPEIVKKKAY | not soluble
11 | MSATPPTTPAPTAAASAGKGLHSRAYNGLIKACDKYVPPKMRPLWMHPAGPKTIFFWAPIVKWSLVIAGLSDLTRPADKISPNGCLALGATNLIWTRYSLVIIPKNYSLFAVNLFVSLTQLFQLGRYYNYQWEQSRLEKNGEQCPAIEASLLEHHHHHH | not soluble
12 | MSATSATNFAVQTHPVKAPDEEYFFEGAEKLLELWFCSSTQNETRSLRIIPREEIDAMLDIARCKILHSKHNESIDSYVLSESSLFISDNRVILKTCGTTRLLAALPVIMQLAGAYAGLDQVQSVYYSRKNFLRPDLQPSLHKNFDAEVEYLDSFFVDGHAYCLGSLKQDRWYLYTFHREVEFPAHKQPDHTLEILMSDLDEEVLHKFTKDYAVDGNDCFMRAGIDKIIPAGADVHDELFDPCGYSMNAYMNDTDQYATIHVTPEKAFSFASFETNQDLVCLYSQTRKVLQCFRPNKILMTVFANDISEKGKDAQQQLWDRELPGYRRTNVQFVRLETETLVYAHFVRKASTGQDSSSSDEDDGERSD | not soluble
